The target in the assay is RBD of the recombinantly expressed S protein (SARS-CoV-2) (UniProt P0DTC2). Kind of assay: ELISA, plate coated with RBD at 0.01 µg/ml, HRP goat anti-human IgG Fc. (In general: In an ELISA, binding on a coated surface is turned into a signal by an enzyme label.)

The text below walks through data of patent publication US20230174628A1.

For Irrelevant antibody, the OD450 reading turned out to be 0.006 OD450.
